Assays:
human Claudin-6 (human) [1] = target: human Claudin-6 (human) (UniProt P56747); experiment: FACS, Claudin-6-CHO-K1 cells
human Claudin-9 (human) [2] = target: human Claudin-9 (human) (UniProt O95484); experiment: FACS dose response, Claudin-9-HEK293 cells
human Claudin-9 (human) [3] = target: human Claudin-9 (human) (UniProt O95484); experiment: FACS, Claudin-9-HEK293 cells, 5 µg/ml
human Claudin-6 (human) [4] = target: human Claudin-6 (human) (UniProt P56747); experiment: FACS, OV90 cells (endogenous CLDN6)
human Claudin-6 (human) [5] = target: human Claudin-6 (human) (UniProt P56747); experiment: cell-based or functional assay
human Claudin-6 (human) [6] = target: human Claudin-6 (human) (UniProt P56747); experiment: FACS dose response, Claudin-6-HEK293 cells
human Claudin-3 (human) [7] = target: human Claudin-3 (human) (UniProt O15551); experiment: FACS on Claudin-3-CHO-K1 cells, MFI relative to the isotype control
human Claudin-6 (human) [8] = target: human Claudin-6 (human) (UniProt P56747); experiment: FACS dose response, Claudin-6-CHO cells
human Claudin-4 (human) [9] = target: human Claudin-4 (human) (UniProt O14493); experiment: FACS, Claudin-4-CHO-K1 cells
human Claudin-3 (human) [10] = target: human Claudin-3 (human) (UniProt O15551); experiment: FACS on MCF7 cells, which endogenously express Claudin-3 and Claudin-4; MFI relative to the isotype control
human Claudin-4 (human) [11] = target: human Claudin-4 (human) (UniProt O14493); experiment: as above
human Claudin-6 (human) [12] = target: human Claudin-6 (human) (UniProt P56747); experiment: FACS, NEC8 cells (endogenous CLDN6)
human Claudin-4 (human) [13] = target: human Claudin-4 (human) (UniProt O14493); experiment: FACS on Claudin-4-CHO-K1 cells, MFI relative to the isotype control

Sequence of human Claudin-3 (human) (O15551 whole entry): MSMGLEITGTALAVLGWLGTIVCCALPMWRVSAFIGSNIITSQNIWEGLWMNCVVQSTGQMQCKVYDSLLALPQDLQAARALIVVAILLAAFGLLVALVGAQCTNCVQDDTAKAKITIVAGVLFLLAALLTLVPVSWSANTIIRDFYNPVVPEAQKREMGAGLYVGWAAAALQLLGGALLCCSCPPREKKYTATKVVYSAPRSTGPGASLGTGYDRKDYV
Sequence of human Claudin-9 (human) (O95484 whole entry): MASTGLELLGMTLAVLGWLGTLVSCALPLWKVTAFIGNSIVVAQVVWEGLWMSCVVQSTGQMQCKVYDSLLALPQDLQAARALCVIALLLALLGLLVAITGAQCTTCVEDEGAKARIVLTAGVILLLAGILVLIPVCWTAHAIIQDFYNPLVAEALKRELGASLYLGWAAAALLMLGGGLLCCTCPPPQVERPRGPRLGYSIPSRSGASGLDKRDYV
Sequence of human Claudin-6 (human) (P56747 whole entry): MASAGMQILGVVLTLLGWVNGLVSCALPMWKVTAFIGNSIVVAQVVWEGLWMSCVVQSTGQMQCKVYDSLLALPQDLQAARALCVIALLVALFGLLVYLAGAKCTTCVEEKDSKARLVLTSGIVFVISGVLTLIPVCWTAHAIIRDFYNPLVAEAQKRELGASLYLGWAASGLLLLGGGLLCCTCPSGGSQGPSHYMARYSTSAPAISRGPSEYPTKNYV

Row | fold MFI over isotype control (human Claudin-6 (human) [1]) [fold] | EC50 (human Claudin-9 (human) [2]) [nM] | fold MFI over isotype control (human Claudin-9 (human) [3]) [fold] | fold MFI over isotype control (human Claudin-6 (human) [4]) [fold] | EC50 (human Claudin-6 (human) [6]) [nM] | fold MFI over isotype control (human Claudin-3 (human) [7]) [x] | EC50 (human Claudin-6 (human) [8]) [nM] | fold MFI over isotype control (human Claudin-4 (human) [9]) [fold] | fold MFI over isotype control (human Claudin-3 (human) [10]) [x] | fold MFI over isotype control (human Claudin-4 (human) [11]) [x] | fold MFI over isotype control (human Claudin-6 (human) [12]) [fold] | fold MFI over isotype control (human Claudin-4 (human) [13]) [x] | Binder | endocytosis-mediated cytotoxicity (anti-hFc Fab-MMAF, CellTiter-Glo) on NEC8 cells, EC50 mean (St. Dev. 0.04) (human Claudin-6 (human) [5]) [nM] | endocytosis-mediated cytotoxicity on OV90 cells, EC50 (human Claudin-6 (human) [5]) [nM] | endocytosis-mediated cytotoxicity (anti-hFc Fab-MMAF, CellTiter-Glo) on NEC8 cells, EC50 mean (St. Dev. 0.03) (human Claudin-6 (human) [5]) [nM]
1 | 25 | 7.57 | 32 | 15 | 8.73 | 1.6 | 24.5 | 4.5 | 1 | 1 | 20 | – | NR.N6.PC2 (antibody, from another filing, V domains shown) VH: QVQLVQSGAEVKKPGASVKVSCKASGYTFTSYWMNWVRQAPGQRLEWMGMIHPSDSEIRLNQKFKDRVTITRDTSASTAYMELSSLRSEDTAVYYCARIDSYYGYLFYFDYWGQGTTVTVSS VL: DIVMTQSPDSLAVSLGERATINCRASQTVSTSSYSYMHWYQQKPGQPPKLLIYFASNVESGVPDRFSGSGSGTDFTLTISSLQAEDVAVYYCQHSWEIPWTFGQGTKLEIKR | 0.14 | 1.71 | –
2 | 25 | 16.4 | 15 | 20 | 1.51 | 1.1 | 1.52 | – | 0.7 | 0.7 | 19 | 1.2 | NR.N6.PC1 (antibody, from another filing, V domains shown) VH: EVQLQQSGPELVKPGASMKISCKASGYSFTGYTMNWVKQSHGKNLEWIGLINPYNGGTIYNQKFKGKATLTVDKSSSTAYMELLSLTSEDSAVYYCARDYGFVLDYWGQGTTLTVSS VL: QIVLTQSPSIMSVSPGEKVTITCSASSSVSYMHWFQQKPGTSPKLCIYSTSNLASGVPARFSGRGSGTSYSLTISRVAAEDAATYYCQQRSNYPPWTFGGGTKLEIK | – | 1.96 | 0.05

Source: patent US20250277026A1
